Assay results from IntAct's records for PubMed 11932251.

B1: Regulator of chromosome condensation (Homo sapiens), P18754 (parent)
chain: MSPKRIAKRRSPPADAIPKSKKVKVSHRSHSTEPGLVLTLGQGDVGQLGLGENVMERKKPALVSIPEDVVQAEAGGMHTVCLSKSGQVYSFGCNDEGALGRDTSVEGSEMVPGKVELQEKVVQVSAGDSHTAALTDDGRVFLWGSFRDNNGVIGLLEPMKKSMVPVQVQLDVPVVKVASGNDHLVMLTADGDLYTLGCGEQGQLGRVPELFANRGGRQGLERLLVPKCVMLKSRGSRGHVRFQDAFCGAYFTFAISHEGHVYGFGLSNYHQLGTPGTESCFIPQNLTSFKNSTKSWVGFSGGQHHTVCMDSEGKAYSLGRAEYGRLGLGEGAEEKSIPTLISRLPAVSSVACGASVGYAVTKDGRVFAWGMGTNYQLGTGQDEDAWSPVEMMGKQLENRVVLSVSSGGQHTVLLVKDKEQS
partner: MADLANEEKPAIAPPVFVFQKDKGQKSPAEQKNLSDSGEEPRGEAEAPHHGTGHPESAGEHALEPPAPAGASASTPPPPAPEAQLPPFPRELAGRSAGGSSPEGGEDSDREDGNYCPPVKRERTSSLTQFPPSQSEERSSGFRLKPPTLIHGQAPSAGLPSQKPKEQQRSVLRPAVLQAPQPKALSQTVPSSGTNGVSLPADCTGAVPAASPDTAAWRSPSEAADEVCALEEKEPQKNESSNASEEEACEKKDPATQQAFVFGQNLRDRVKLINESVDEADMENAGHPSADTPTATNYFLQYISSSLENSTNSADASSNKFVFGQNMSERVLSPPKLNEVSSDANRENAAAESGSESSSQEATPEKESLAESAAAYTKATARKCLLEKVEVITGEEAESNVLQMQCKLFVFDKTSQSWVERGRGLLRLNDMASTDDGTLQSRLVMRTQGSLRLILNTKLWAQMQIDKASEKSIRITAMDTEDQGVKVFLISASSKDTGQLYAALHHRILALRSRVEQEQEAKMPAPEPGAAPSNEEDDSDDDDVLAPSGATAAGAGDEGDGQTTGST

Variants of: B1
Settings: with ranb3_human RANBP3, Q9H6Z4

Row | Variant | effect of a mutation on the interaction
1 | D182A | disrupting interaction
